Source: patent US20250084142A1 (INTARCIA THERAPEUTICS, published 2025)
Starred links: 1 amine or outer side, 2 acyl side, 3 side chain; linkers in the order of their positions; H or OH if unused. Groups on a side chain read outwards from the residue. No end group written: not given here. *: point of attachment. C20 diacid = O=C(O)CCCCCCCCCCCCCCCCCCC(=O)*; γGlu = O=C(O)[C@H](CCC(=O)[*:2])N[*:1]

How the values were obtained:
Test in all cases: cell-based or functional assay
NPY1R = biological target: NPY1R
NPY1R, sequence (P25929 whole entry): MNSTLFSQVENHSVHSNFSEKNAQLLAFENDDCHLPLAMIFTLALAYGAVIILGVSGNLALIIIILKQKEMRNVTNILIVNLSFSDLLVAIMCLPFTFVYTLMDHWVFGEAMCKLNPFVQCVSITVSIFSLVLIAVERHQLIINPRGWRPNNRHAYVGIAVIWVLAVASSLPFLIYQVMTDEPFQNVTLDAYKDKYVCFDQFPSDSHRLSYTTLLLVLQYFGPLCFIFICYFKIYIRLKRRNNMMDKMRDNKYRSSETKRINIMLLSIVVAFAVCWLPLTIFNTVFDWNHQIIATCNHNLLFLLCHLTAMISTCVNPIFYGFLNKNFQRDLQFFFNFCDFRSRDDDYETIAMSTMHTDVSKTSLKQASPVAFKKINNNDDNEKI

NPY5R = biological target: T1, NPY5R
T1 sequence (Q15761 1-445, species assumed, looked up): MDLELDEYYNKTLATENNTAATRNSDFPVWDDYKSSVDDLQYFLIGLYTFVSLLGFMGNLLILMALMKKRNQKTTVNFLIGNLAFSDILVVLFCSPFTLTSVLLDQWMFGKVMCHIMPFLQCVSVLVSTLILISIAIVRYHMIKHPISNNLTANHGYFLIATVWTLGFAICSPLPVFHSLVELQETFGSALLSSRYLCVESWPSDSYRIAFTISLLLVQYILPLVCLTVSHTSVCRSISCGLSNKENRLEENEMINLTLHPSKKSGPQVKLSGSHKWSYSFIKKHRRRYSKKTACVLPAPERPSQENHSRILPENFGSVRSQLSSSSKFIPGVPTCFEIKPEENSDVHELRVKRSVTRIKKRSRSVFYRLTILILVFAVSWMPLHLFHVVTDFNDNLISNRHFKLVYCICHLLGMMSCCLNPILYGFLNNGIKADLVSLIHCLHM

NPY2R = biological target: T2, NPY2R
T2 sequence (P49146 1-381, species assumed, looked up): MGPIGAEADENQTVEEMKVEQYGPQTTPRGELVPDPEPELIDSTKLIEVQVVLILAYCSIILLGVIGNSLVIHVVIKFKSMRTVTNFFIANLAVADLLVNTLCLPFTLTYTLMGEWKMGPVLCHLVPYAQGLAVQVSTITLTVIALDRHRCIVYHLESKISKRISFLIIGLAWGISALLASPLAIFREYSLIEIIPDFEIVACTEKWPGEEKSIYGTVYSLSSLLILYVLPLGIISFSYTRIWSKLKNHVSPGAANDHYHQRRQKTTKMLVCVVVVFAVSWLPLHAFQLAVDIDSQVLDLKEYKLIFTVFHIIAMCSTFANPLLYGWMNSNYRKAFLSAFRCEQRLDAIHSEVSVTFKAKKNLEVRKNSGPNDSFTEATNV

B1: Compound A72 (peptide)
peptide: PKPEK([γGlu-γGlu-C20 diacid])PGEDASPKEWNRYYKDLRHYLNWLTRQRF-NH2
modifications: N-terminus assumed
SMILES: CC(C)C[C@H](NC(=O)[C@H](CC(=O)O)NC(=O)[C@H](CCCCN)NC(=O)[C@H](Cc1ccc(O)cc1)NC(=O)[C@H](Cc1ccc(O)cc1)NC(=O)[C@H](CCCNC(=N)N)NC(=O)[C@H](CC(N)=O)NC(=O)[C@H](Cc1c[nH]c2ccccc12)NC(=O)[C@H](CCC(=O)O)NC(=O)[C@H](CCCCN)NC(=O)[C@@H]1CCCN1C(=O)[C@H](CO)NC(=O)[C@H](C)NC(=O)[C@H](CC(=O)O)NC(=O)[C@H](CCC(=O)O)NC(=O)CNC(=O)[C@@H]1CCCN1C(=O)[C@H](CCCCNC(=O)CC[C@H](NC(=O)CC[C@H](NC(=O)CCCCCCCCCCCCCCCCCCC(=O)O)C(=O)O)C(=O)O)NC(=O)[C@H](CCC(=O)O)NC(=O)[C@@H]1CCCN1C(=O)[C@H](CCCCN)NC(=O)[C@@H]1CCCN1)C(=O)N[C@@H](CCCNC(=N)N)C(=O)N[C@@H](Cc1c[nH]cn1)C(=O)N[C@@H](Cc1ccc(O)cc1)C(=O)N[C@@H](CC(C)C)C(=O)N[C@@H](CC(N)=O)C(=O)N[C@@H](Cc1c[nH]c2ccccc12)C(=O)N[C@@H](CC(C)C)C(=O)N[C@H](C(=O)N[C@@H](CCCNC(=N)N)C(=O)N[C@@H](CCC(N)=O)C(=O)N[C@@H](CCCNC(=N)N)C(=O)N[C@@H](Cc1ccccc1)C(N)=O)[C@@H](C)O
NPY1R
  NPY1R pEC50: 9 -Log(EC50, M)
NPY5R
  NPY5R pEC50: 8.8 -Log(EC50, M)
NPY2R
  NPY2R pEC50: 10.8 -Log(EC50, M)
